In series [1] the target is T1, Heat shock factor protein 1 (HSF1), purified recombinant (human), Q00613.
T1 chain: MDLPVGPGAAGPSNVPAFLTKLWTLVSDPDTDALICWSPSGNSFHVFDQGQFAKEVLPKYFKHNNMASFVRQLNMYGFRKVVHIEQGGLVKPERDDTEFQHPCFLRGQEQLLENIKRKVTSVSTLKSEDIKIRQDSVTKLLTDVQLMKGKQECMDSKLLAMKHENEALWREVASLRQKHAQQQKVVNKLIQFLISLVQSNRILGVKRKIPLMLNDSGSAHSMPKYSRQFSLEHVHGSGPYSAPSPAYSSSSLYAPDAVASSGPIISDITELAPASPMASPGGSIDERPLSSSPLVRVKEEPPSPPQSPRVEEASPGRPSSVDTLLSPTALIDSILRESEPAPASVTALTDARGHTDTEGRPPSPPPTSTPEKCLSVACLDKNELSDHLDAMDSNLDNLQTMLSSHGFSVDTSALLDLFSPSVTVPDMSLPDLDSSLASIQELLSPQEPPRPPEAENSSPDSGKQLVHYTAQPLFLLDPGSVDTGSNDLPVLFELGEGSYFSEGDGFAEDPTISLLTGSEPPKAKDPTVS
As to the kind of experiment: native gel or EMSA; Blue native PAGE and western blot of purified HSF1 monomer (5 μM) after mild heat (38°C, 0-600 s; or 37°C, 5 min) with or without BSA as crowder (1-50 mg/ml). Conditions: remark: other sources report otherwise. A general note: In EMSA bound probe runs differently from free probe, usually more slowly.

Series [2] deals with T1, Heat shock factor protein 1 (HSF1), …. As to the kind of experiment: SEC + native gel or EMSA; trimer fraction of purified HSF1 from the same SEC, then Blue native PAGE and western blot. Conditions: remark: other sources report otherwise.
The target in series [3] is T2, mCherry-HSF1 (human), Q00613.
T2 chain: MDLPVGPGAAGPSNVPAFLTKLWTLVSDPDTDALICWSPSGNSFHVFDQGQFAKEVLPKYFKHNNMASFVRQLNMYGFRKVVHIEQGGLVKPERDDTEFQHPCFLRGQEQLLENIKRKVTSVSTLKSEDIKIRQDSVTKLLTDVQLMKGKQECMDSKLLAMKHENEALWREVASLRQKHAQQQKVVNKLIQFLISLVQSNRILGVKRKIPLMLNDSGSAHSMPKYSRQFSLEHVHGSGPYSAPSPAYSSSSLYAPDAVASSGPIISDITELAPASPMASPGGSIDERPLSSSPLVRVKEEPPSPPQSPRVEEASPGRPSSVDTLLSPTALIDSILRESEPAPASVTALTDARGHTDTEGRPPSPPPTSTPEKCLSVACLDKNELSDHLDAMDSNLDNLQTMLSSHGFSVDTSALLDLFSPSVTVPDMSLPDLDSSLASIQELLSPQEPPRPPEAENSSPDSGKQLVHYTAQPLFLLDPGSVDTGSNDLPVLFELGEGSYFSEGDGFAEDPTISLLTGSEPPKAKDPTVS
As to the kind of experiment: native gel or EMSA; high resolution clear native electrophoresis (HR CNE) of lysates of H1299 cells with fluorescent HSF1 fusion, fluorescence scan; cells treated with sorbitol, 42°C heat shock, bortezomib or AUY-922. Conditions: remark: other sources report otherwise.

The target in series [4] is T3, GFP-HSF1 (human), Q00613.
T3 chain: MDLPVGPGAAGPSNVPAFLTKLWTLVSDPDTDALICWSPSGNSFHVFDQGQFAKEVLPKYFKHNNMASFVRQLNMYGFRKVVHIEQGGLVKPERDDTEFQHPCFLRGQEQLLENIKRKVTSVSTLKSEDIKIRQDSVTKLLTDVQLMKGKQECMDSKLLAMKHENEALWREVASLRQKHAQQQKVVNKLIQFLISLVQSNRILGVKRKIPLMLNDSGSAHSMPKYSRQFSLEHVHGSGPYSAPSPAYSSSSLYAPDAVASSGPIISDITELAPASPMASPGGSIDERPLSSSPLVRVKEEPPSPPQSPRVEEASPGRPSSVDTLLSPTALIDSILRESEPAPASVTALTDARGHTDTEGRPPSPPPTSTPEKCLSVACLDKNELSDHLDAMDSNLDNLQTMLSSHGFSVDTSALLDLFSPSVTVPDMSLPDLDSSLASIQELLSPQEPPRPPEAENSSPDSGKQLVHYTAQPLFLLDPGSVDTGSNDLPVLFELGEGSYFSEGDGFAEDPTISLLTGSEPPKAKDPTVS
The description is as above. Conditions: remark: other sources report otherwise.

In series [5] the target is T4, HSF1, endogenous in H1299 cells (human (endogenous in H1299)), Q00613.
T4 chain: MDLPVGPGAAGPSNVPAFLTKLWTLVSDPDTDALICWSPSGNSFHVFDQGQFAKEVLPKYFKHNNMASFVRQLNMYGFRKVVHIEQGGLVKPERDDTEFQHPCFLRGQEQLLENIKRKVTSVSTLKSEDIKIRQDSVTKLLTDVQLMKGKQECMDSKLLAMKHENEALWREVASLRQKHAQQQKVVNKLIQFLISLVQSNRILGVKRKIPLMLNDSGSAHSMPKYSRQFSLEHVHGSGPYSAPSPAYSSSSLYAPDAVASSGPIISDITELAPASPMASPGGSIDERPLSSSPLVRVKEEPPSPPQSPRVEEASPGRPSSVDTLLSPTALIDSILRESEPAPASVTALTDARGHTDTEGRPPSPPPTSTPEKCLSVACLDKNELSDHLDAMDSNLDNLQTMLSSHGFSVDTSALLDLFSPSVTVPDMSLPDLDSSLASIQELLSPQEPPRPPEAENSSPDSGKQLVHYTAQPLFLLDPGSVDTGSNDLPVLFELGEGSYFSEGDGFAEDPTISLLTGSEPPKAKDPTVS
As to the kind of experiment: cross-linking; 2 mM DSBU added to the lysate of H1299 cells for 30 minutes, SDS-PAGE, blot with anti-HSF1 c-5; cells treated with AUY-922 (0-200 nM, 2 h) after mTOR inhibitors BEZ-235 or rapamycin (100 nM, 8 h). To be noted: remark: other sources report otherwise.

Series [6] has as its target HSF1 monomer (SEC-purified) (human (Homo sapiens), UniProt Q00613 1-529). As to the kind of experiment: fluorescence polarization; after heat shock (+HS); binding enhanced; FP: 30 nM DNA, 150 mM NaCl, 50 mM HEPES pH 7.2, 1 mM DTT, 0.05% Tween-20, 25 C; EMSA: 200 nM HSF1, 100 nM DNA, 25 mM HEPES pH 7.4, 150 mM NaCl, 10% glycerol, 3. Conditions: protein: recombinant; tags: N-terminal His6-TEV, cleaved by TEV before assay; chain copies: 3; label: 5' FAM on printed strand; described as double-stranded. A general note: Fluorescence polarisation rises when a labelled molecule tumbles more slowly, as on binding a larger partner.

B1: Heat shock factor protein 1 (HSF1), purified recombinant, Q00613-1 1-529 (natural protein)
chain: MDLPVGPGAAGPSNVPAFLTKLWTLVSDPDTDALICWSPSGNSFHVFDQGQFAKEVLPKYFKHNNMASFVRQLNMYGFRKVVHIEQGGLVKPERDDTEFQHPCFLRGQEQLLENIKRKVTSVSTLKSEDIKIRQDSVTKLLTDVQLMKGKQECMDSKLLAMKHENEALWREVASLRQKHAQQQKVVNKLIQFLISLVQSNRILGVKRKIPLMLNDSGSAHSMPKYSRQFSLEHVHGSGPYSAPSPAYSSSSLYAPDAVASSGPIISDITELAPASPMASPGGSIDERPLSSSPLVRVKEEPPSPPQSPRVEEASPGRPSSVDTLLSPTALIDSILRESEPAPASVTALTDARGHTDTEGRPPSPPPTSTPEKCLSVACLDKNELSDHLDAMDSNLDNLQTMLSSHGFSVDTSALLDLFSPSVTVPDMSLPDLDSSLASIQELLSPQEPPRPPEAENSSPDSGKQLVHYTAQPLFLLDPGSVDTGSNDLPVLFELGEGSYFSEGDGFAEDPTISLLTGSEPPKAKDPTVS
Usually stoichiometry N stands for a count of units in the complex or per binding partner. In the case of B1, the stoichiometry N in series [1] and in series [2] was 3 throughout.

B2: mCherry-HSF1, Q00613-1 1-529 (natural protein)
chain: MDLPVGPGAAGPSNVPAFLTKLWTLVSDPDTDALICWSPSGNSFHVFDQGQFAKEVLPKYFKHNNMASFVRQLNMYGFRKVVHIEQGGLVKPERDDTEFQHPCFLRGQEQLLENIKRKVTSVSTLKSEDIKIRQDSVTKLLTDVQLMKGKQECMDSKLLAMKHENEALWREVASLRQKHAQQQKVVNKLIQFLISLVQSNRILGVKRKIPLMLNDSGSAHSMPKYSRQFSLEHVHGSGPYSAPSPAYSSSSLYAPDAVASSGPIISDITELAPASPMASPGGSIDERPLSSSPLVRVKEEPPSPPQSPRVEEASPGRPSSVDTLLSPTALIDSILRESEPAPASVTALTDARGHTDTEGRPPSPPPTSTPEKCLSVACLDKNELSDHLDAMDSNLDNLQTMLSSHGFSVDTSALLDLFSPSVTVPDMSLPDLDSSLASIQELLSPQEPPRPPEAENSSPDSGKQLVHYTAQPLFLLDPGSVDTGSNDLPVLFELGEGSYFSEGDGFAEDPTISLLTGSEPPKAKDPTVS
Take B2: the stoichiometry N in series [3] turned out to be 3.

B3: GFP-HSF1, Q00613 1-529 (natural protein)
chain: MDLPVGPGAAGPSNVPAFLTKLWTLVSDPDTDALICWSPSGNSFHVFDQGQFAKEVLPKYFKHNNMASFVRQLNMYGFRKVVHIEQGGLVKPERDDTEFQHPCFLRGQEQLLENIKRKVTSVSTLKSEDIKIRQDSVTKLLTDVQLMKGKQECMDSKLLAMKHENEALWREVASLRQKHAQQQKVVNKLIQFLISLVQSNRILGVKRKIPLMLNDSGSAHSMPKYSRQFSLEHVHGSGPYSAPSPAYSSSSLYAPDAVASSGPIISDITELAPASPMASPGGSIDERPLSSSPLVRVKEEPPSPPQSPRVEEASPGRPSSVDTLLSPTALIDSILRESEPAPASVTALTDARGHTDTEGRPPSPPPTSTPEKCLSVACLDKNELSDHLDAMDSNLDNLQTMLSSHGFSVDTSALLDLFSPSVTVPDMSLPDLDSSLASIQELLSPQEPPRPPEAENSSPDSGKQLVHYTAQPLFLLDPGSVDTGSNDLPVLFELGEGSYFSEGDGFAEDPTISLLTGSEPPKAKDPTVS
Molecule B3 had a stoichiometry N in series [4] of 3.

B4: HSF1, endogenous in H1299 cells, Q00613 1-529 (natural protein)
chain: MDLPVGPGAAGPSNVPAFLTKLWTLVSDPDTDALICWSPSGNSFHVFDQGQFAKEVLPKYFKHNNMASFVRQLNMYGFRKVVHIEQGGLVKPERDDTEFQHPCFLRGQEQLLENIKRKVTSVSTLKSEDIKIRQDSVTKLLTDVQLMKGKQECMDSKLLAMKHENEALWREVASLRQKHAQQQKVVNKLIQFLISLVQSNRILGVKRKIPLMLNDSGSAHSMPKYSRQFSLEHVHGSGPYSAPSPAYSSSSLYAPDAVASSGPIISDITELAPASPMASPGGSIDERPLSSSPLVRVKEEPPSPPQSPRVEEASPGRPSSVDTLLSPTALIDSILRESEPAPASVTALTDARGHTDTEGRPPSPPPTSTPEKCLSVACLDKNELSDHLDAMDSNLDNLQTMLSSHGFSVDTSALLDLFSPSVTVPDMSLPDLDSSLASIQELLSPQEPPRPPEAENSSPDSGKQLVHYTAQPLFLLDPGSVDTGSNDLPVLFELGEGSYFSEGDGFAEDPTISLLTGSEPPKAKDPTVS
B4 showed a stoichiometry N in series [5] of 3.

B5: FAM-HSE (dsDNA)
DNA 1: CCCCTTCCCGAATATTCCCCC
DNA 2: GGGGGAATATTCGGGAAGGGG
As for B5, the binding result in series [6] is “binds”.

The values are drawn from paper PMC11534217, “Direct activation of HSF1 by macromolecular crowding and misfolded proteins”.
